Changes are numbered by the printed parent chain. Numbers in names are those of the source. Entries after “also recorded” stand apart in the source; their conditions may differ.
Tests used:
[1] = biological target: T1, FCGRIIIA receptor (CD16a) (Homo sapiens, UniProt P08637); test: ELISA binding to the extracellular domain of CD16a; conditions: 200 ng per well CD16a, 0.3 to 5.0 μg/ml
T1 construct: purchased R&D System
Method: The binding of anti-AMHR-II antibodies to the extracellular domain of CD16a was evaluated by ELISA. ELISA plates (96 wells, Maxisorp, NUnc) were coated overnight at +4° C. with 200 ng per wells of CD16a (R&D System) or an irrelevant protein (NS, non-specific binding). The experimental protocol was identical to that described for example 1. The unconjugated and ADC 3C23K antibodies were tested at concentrations from 0.3 to 5.0 μg/ml.

[2] = tested on: COV434 AMHR-II transfected cell line; test: Apoptosis induction, Annexin V-FITC / propidium iodide flow cytometry; format: cell-based; conditions: 250 μg/ml, 48 hours
Method: The percentage of apoptotic was assessed using the Annexin V-Fluos Staining kit (Roche) according to the manufacturer's protocol. […] Carboplatin (300 μM) was used as positive control. After washes and centrifugation, the cell pellets were resuspended in the Annexin-V-Fluorescein and propidium iodide reagents. Following 10 minutes incubation at room temperature, samples were analyzed by flow cytometry on a BD Accuri™ C6 flow cytometer (BD Bioscience).

COV434 WT cell line = test: Antibody internalization (flow cytometry); format: cell-based; conditions: 10 μg/ml, low level of AMHR-II expression
Method: (§1) Antibody mediated internalization were assessed by flow cytometry analysis and by immunofluorescence imaging. Flow cytometry experiments was done on the two expressing AMHR-II cell lines: COV434 WT with low level of expression and COV434-AMHR-II transfected cell line with high level of expression. Briefly, 5×10^5 cells were incubated with 3C23K at 10 μg/ml and incubated 30 min at 4° C. After washes, DMEM/GlutaMax (Gibco) medium, cold or pre-warmed at 37° C., was added and incubated at 4° C. or 37° C. at different time points (15 min, 30 min and 60 min). Phycoerythrin-conjugated anti-human IgG antibody (1:200, Beckman-Coulter) was added for 30 min at 4° C. FACS analysis of the resuspended cells was done on a BD Accuri™ C6 flow cytometer (BD Bioscience). As depicted in FIGS. 9A and 9B, the internalization of the 3C23K observed at 37° C. is fast whatever the level of AMHR-II expression. For immunofluorescence imaging experiments, COV434 AMHR-II transfected cell line were grown on poly-D lysine coated glass coverslips overnight at 37° C. at a density of 75000 cells/cm^2. Cells were incubated with 3C23K directly labelled with Alexa Fluor 488 for 1H30 at 4° C. to carry out surface labelling. […] Internalization was quantified by counting the number of visible vesicles in cell section at different incubation time using Image J software.

[3] = tested on: COV434 AMHR-II transfected cell line; test: Antibody internalization (flow cytometry and immunofluorescence imaging); format: cell-based; conditions: for internalization compared with 3C23K: K4D24 0.5 μg/ml, 6C59 0.3 μg/ml, 3C23K 10 μg/ml
Method: Antibody mediated internalization were assessed by flow cytometry analysis and by immunofluorescence imaging. Flow cytometry experiments was done on the two expressing AMHR-II cell lines: COV434 WT with low level of expression and COV434-AMHR-II transfected cell line with high level of expression. Briefly, 5×10^5 cells were incubated with 3C23K at 10 μg/ml and incubated 30 min at 4° C. After washes, DMEM/GlutaMax (Gibco) medium, cold or pre-warmed at 37° C., was added and incubated at 4° C. or 37° C. at different time points (15 min, 30 min and 60 min). Phycoerythrin-conjugated anti-human IgG antibody (1:200, Beckman-Coulter) was added for 30 min at 4° C. FACS analysis of the resuspended cells was done on a BD Accuri™ C6 flow cytometer (BD Bioscience). As depicted in FIGS. 9A and 9B, the internalization of the 3C23K observed at 37° C. is fast whatever the level of AMHR-II expression. For immunofluorescence imaging experiments, COV434 AMHR-II transfected cell line were grown on poly-D lysine coated glass coverslips overnight at 37° C. at a density of 75000 cells/cm^2. Cells were incubated with 3C23K directly labelled with Alexa Fluor 488 for 1H30 at 4° C. to carry out surface labelling. Cell surface bound antibodies were allowed to internalize by incubating cells in prewarmed medium at 37° C. At appropriate time points, coverslips were removed and cells were washed in PBS, then fixed in formaline (4%, 30 min at room temperature) and permeabilized (Triton X-100 0.5%, 5 min at room temperature). Nuclei were stained with DAPI (4′,6-diamidino-2-phenylindole) and coverslips were mounted on microscope slides and imaged with Leica DM5000 microscope (Leica Microsystems). Internalization was quantified by counting the number of visible vesicles in cell section at different incubation time using Image J software.
The internalization capacity of the K4D24 and 6C59 variants was assayed by fluorescence cytometry analysis in the same manner as in Example 8 except for the concentrations used. Due to their strong binding, K4D24 and 6C59 were used at 0.5 μg/ml and 0.3 μg/ml respectively whereas the 3C23K was used at 10 μg/ml.

[4] = biological target: T2, AMHR-II receptor protein (AMHR-II-ECD-Fc) (Homo sapiens, UniProt Q16671); test: Binding kinetic parameters by surface plasmon resonance (Bia3000) on immobilized AMHR-II-ECD-Fc; conditions: SPR, 25° C., Langmuir 1:1 fitting model
T2 construct: Fc (C); purchased R&D System
T2 sequence (Q16671 18-149 limits assumed): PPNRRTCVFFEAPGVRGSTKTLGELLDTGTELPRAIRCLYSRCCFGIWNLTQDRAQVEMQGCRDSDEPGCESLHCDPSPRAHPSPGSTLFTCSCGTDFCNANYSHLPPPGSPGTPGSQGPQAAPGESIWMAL
Method: Immobilization of AMHRII was performed on a Bia3000 apparatus at 25° C. in HBS-EP (HEPES 10 mM, NaCl 150 mM, EDTA 3 mM, P20 surfactant 0.005%) at […] flow rate on CM5 sensor chip using EDC/NHS (1-Ethyl-3-3-dimethylaminopropyl carbodiimidehydrochloride) activation according to the manufacturer's instructions (GEHealthcare). Briefly, carboxyl functions of CM5 sensor chip were activated with 0.4M EDC/0.1M NHS during 7 min. A solution of AMHR-II-ECD-Fc (R&D System) at 2.5 μg/ml in sodium acetate buffer was injected during 12 min. An injection of 1M ethanolamine hydrochloride was used to neutralize the activation. Recombinant AMHR-II was covalently immobilized at 1270 RU level. A control reference surface was prepared using the same chemical treatment of without injection of AMHRII.
Antibodies at different concentrations (from 0.5 nM to 133 nM) were injected during 180s on AMHRII-coated flowcell and the control flowcell. After a dissociation step of 400s in running buffer, sensor surfaces were regenerated using 5 μl of Glycine-HCl pH1.7. All the sensorgrams were corrected by subtracting the low signal from the control reference surface. Kinetic parameters were evaluated from the sensorgrams using a Langmuir 1:1 fitting model on the BiaEvaluation 4.2 software.

[5] = tested on: COV434 AMHR-II transfected cell line; test: Co-localization with the lysosomal marker LAMP-1 (immunofluorescence); format: cell-based
Method: as §1, with “software. […]” for “software.”

[6] = biological target: T3, AMHR2 receptor expressed at the surface membrane of the COV434 AMHR2 transfected cell line (Homo sapiens, UniProt Q16671); test: FACS binding to AMHR-II receptor at the surface of the COV434 AMHR-II transfected cell line; conditions: concentrations 0.5 to 75 μg/ml, Hill slope fit (Example 4)
T3 construct: expressed in transfected cells; host or cells: COV434
T3 sequence (Q16671 18-573): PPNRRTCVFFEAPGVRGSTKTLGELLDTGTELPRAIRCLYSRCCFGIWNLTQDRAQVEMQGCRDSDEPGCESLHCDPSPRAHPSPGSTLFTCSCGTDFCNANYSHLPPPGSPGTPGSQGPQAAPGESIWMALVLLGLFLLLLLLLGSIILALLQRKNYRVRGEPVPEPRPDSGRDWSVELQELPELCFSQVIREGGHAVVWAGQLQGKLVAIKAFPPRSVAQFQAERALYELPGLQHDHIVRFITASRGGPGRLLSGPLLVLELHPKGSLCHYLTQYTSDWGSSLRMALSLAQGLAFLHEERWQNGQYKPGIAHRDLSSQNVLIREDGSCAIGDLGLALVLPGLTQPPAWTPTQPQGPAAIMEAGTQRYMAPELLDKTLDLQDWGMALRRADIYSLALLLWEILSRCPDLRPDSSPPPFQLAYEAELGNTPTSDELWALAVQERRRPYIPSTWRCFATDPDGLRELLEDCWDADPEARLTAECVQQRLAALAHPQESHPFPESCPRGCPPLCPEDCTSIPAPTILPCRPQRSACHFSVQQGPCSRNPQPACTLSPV
Method: (§2) The COV434 AMHR-II transfected and the COV434 WT cell lines were maintained in DMEM/GlutaMax (Gibco) supplemented with 10% FBS, penicillin 100 U/ml and Streptomycin 100 μg/ml. Geneticin at 666 μg/ml was added for the COV434 AMHR-II transfected cell line. […] After washes, Phycoerythrin-conjugated anti-human IgG antibody (1:200, Beckman-Coulter) was added for 1 hour at room temperature. FACS analysis of the resuspended cells was done on a BD Accuri™ C6 flow cytometer (BD Bioscience).
(§3) The binding capacity of the anti-AMHR-II antibody variants K4D24 and 6C59 to the AMHR-II expressing cell lines was evaluated by flow cytometry analysis in the same manner as example 4. FACS analysis with COV434-AMHR-II transfected cell line is described in FIG. 16. The Kapparent of the K4D24 and 6C59 variants were improved by a factor of 20 and 40 fold respectively as compared to the 3C23K (0.098 μg/ml and 0.05 μg/ml versus 2.2 μg/ml). The binding capacity of these variants was also assayed on the low expressing AMHR-II COV434 WT cell line. In this setting the binding was evaluated with three concentrations of variants (25, 10 and 5 μg/ml) and three concentrations of 3C23K (50, 25 and 10 μg/ml).

[7] = biological target: T4, AMHR2 receptor expressed at the surface membrane of the COV434 WT cell line (Homo sapiens, UniProt Q16671); test: FACS binding to the low expressing COV434 WT cell line; conditions: variants 25, 10, 5 μg/ml; 3C23K 50, 25, 10 μg/ml
T4 construct: assayed on the low expressing AMHR-II COV434 WT cell line; endogenous in cells; host or cells: COV434 WT
T4 sequence (Q16671 18-573): T3 sequence (Q16671 18-573)
Method: as §2, §3

[8] = biological target: T5, extracellular domain of AMHR-II receptor (AMHR-II-ECD-Fc) (Homo sapiens, UniProt Q16671); test: ELISA binding to the extracellular domain of AMHR-II receptor
T5 construct: Fc (C); purchased R&D System
T5 sequence (Q16671 18-149 limits assumed): T2 sequence (Q16671 18-149 limits assumed)
Method: The binding capacity of the anti-AMHR-II 3C23K antibodies was evaluated by ELISA. ELISA plates (96 wells, Maxisorp, NUnc) were coated overnight at +4° C. with 50 ng per well of AMHR-II-ECD-Fc (R&D System). Coated ELISA plates were blocked with PBS-BSA 4% for 2 hours at 37° C. and washed three times with PBS-Tween20 0.05%. […] The bound anti-AMHR-II antibodies were detected by adding HRP-conjugated F(ab′)2 goat anti-human F(ab′2) fragment specific (Interchim) diluted at 1:10000 and incubated for one hour at 37° C. Revelation was done with TMB (Sigma) and the reaction was stopped by adding H2SO4 1N (v:v). Absorbances were measured at 450 nm and binding data curves were analysis using GraphPad Prism.
The binding capacity of the anti-AMHR-II variants K4D24 and 6C59 antibodies was assayed by ELISA assay as the same manner as in example 3 with only minor changes. ELISA plates (96 wells, Maxisorp, NUnc) were coated overnight at +4° C. with 50 ng per well or 10 ng per well of AMHR-II-ECD-Fc (R&D System). K4D24, 6C59 and 3C23K were serially diluted from 4 μg/ml to 1 ng/ml. Absorbances were measured at 450 nm and binding data curves were analysis using four-parameter nonlinear regression fit from GraphPad Prism. FIGS. 15A-15B show the results.

[9] = coating 10 ng/well AMHR-II recombinant protein
[10] = coating 50 ng/well AMHR-II recombinant protein

T1 sequence (P08637 17-208 limits assumed): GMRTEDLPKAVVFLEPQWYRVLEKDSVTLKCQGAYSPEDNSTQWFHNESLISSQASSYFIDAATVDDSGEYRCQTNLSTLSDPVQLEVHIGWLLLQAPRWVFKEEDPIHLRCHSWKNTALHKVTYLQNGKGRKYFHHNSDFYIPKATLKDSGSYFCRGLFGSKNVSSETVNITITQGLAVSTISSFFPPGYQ

B1: 3C23K (antibody, V domains shown)
VH: QVRLVQSGAEVKKPGASVKVSCKASGYTFTSYHIHWVRQAPGQRLEWMGWIYPGDDSTKYSQKFQGRVTITRDTSASTAYMELSSLRSEDTAVYYCTRGDRFAYWGQGTLVTVSS
VL: DIQMTQSPSTLSASVGDRVTITCRASSSVRYIAWYQQKPGKAPKLLTYPTSSLKSGVPSRFSGSGSGTEFTLTISSLQPDDFATYYCLQWSSYPWTFGGGTKVEIK
modifications: 3C23K/3C23; 3C23K
binding to CD16a [1]: very high affinity | apoptosis induction [2]: did not induce any apoptosis | internalization observed at 37° C. (COV434 WT cell line): fast | internalization observed at 37° C. ([3]; flow cytometry, 10 μg/ml, high level of AMHR-II expression): fast | time of maximum of intracellular location ([3]; immunofluorescence imaging, 3C23K Alexa Fluor 488, 37° C.): 60 min | KA [4]: 1.81e+10 M⁻¹ | Kd [4]: 50 pM | ka [4]: 125000 M⁻¹ s⁻¹ | kd [4]: 6.93e-06 s⁻¹ | detection in the lysosomal compartment (colocalization with LAMP-1) [5]: rapidly detected in the lysosomal compartment | KDapparent [6]: ~3.1 µg/mL

B2: K4D24: 3C23K variant; VH H-Q1R (SEQ ID NO: 22), VL SEQ ID NO: 36 (antibody, V domains shown)
VH: B1 VH with Q1R
VL: B1 VL
modifications: K4D-24/6C59; 3C23K
binding compared to 3C23K on the COV434 WT cell line [7]: strongly improve the level of detection; also recorded: stronger binding | internalization compared with 3C23K ([3]; flow cytometry): retain the same internalization potential | binding compared with 3C23K [8, 9]: Improved binding; also recorded: stronger | binding compared with 3C23K [8, 10]: no major difference of binding

B3: 6C59: 3C23K variant; VH H-Q1R (SEQ ID NO: 22), VL L-S27P, L-S28P (SEQ ID NO: 40) (antibody, V domains shown)
VH: B1 VH with Q1R
VL: B1 VL with S27P, S28P
modifications: K4D-24/6C59; LS27P, L-S28P
binding compared to 3C23K on the COV434 WT cell line [7]: strongly improve the level of detection; also recorded: stronger binding | internalization compared with 3C23K ([3]; flow cytometry): retain the same internalization potential | binding compared with 3C23K [8, 9]: Improved binding; also recorded: stronger | binding compared with 3C23K [8, 10]: no major difference of binding
